Reference: patent US5756343, “Cell stress transcriptional factors” (The United States of America as represented by the …, dated 1992)

How the values were obtained:
[1] = molecular target: T1, Drosophila HSF expressed in Xenopus oocytes (Drosophila melanogaster) (UniProt P22813); assay: EMSA; settings: oocytes 36 C 10 min vs 18 C
T1 sequence: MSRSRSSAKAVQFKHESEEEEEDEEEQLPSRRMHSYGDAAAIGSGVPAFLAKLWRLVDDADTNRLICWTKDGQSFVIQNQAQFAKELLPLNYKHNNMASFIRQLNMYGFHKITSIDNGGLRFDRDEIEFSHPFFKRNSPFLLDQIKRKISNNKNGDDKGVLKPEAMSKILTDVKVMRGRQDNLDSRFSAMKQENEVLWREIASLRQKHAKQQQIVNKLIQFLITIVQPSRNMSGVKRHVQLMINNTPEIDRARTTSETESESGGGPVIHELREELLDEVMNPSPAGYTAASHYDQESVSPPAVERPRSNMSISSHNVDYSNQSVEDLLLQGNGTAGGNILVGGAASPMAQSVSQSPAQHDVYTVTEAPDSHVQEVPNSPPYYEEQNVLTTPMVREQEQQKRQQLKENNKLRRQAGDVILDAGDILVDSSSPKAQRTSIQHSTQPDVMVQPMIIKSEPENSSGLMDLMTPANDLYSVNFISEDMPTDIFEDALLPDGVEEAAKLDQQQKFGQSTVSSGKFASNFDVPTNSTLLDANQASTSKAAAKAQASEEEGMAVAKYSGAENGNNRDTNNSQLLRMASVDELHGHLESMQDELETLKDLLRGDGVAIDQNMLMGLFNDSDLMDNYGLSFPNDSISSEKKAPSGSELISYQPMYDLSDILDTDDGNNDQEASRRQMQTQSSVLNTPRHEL

[2] = molecular target: human HSF (HuHSF) (Homo sapiens) (UniProt Q00613); settings: in vitro transcription, Drosophila embryo extract
[3] = molecular target: T2, Drosophila HSF full length (pHSF WT) (Drosophila melanogaster) (UniProt P22813); settings: in vitro transcription, Drosophila embryo extract; scale: fold transcription vs template lacking HSEs
T2 sequence: T1 sequence

[4] = molecular target: the molecule itself; assay: self-association: pore exclusion limit electrophoresis on a nondenaturing gradient gel, purified HSF from E. coli
Procedure: The gel was stained with Coomassie Blue. […] (B) Pore exclusion limit analysis of the HSF:^32P-HSE complex. 3 µl of Drosophila SL-2 cell cytosol (lanes 1,2) and 0.5 µl of an extract *E. coli* expressing HSF (lanes 3,4) were heat shocked (+) in vitro at 34° C. or incubated at 0° C. (−) for 10 min. The samples were incubated for 10 min with ^32P-labeled HSE tinder standard gel shift conditions, and electrophoresed on a nondenaturing, 3–12% polyacrylamide gradient gel until the limit of migration. The gel was stained with Coomassie Blue, dried and subjected to autoradiography. The positions of marker proteins are indicated. (C) Glutaraldehyde cross-linking of cloned HSF. Purified HSF (2 µg/10 µl) was treated for 5 min at room temperature with glutaraldehyde as indicated. After quenching, about 1 µg of cross-linked HSF was separated on a 4–6% SDS polyacrylamide gel, and silver stained. The minor polypeptides below the 105 kD HSF protein probably represent degradation products. […] Cross-linked products were analyzed by SDS gel electrophoresis as above.
EXAMPLE 5 Recombinant Drosophila HSF Expressed in *E. coli*. Associates as a Hexamer in Solution The apparent molecular mass of recombinant HSF, purified from *E. coli* extracts, was determined to be about 105 KD by SDS polyacrylamide gel electrophoresis (see FIG. 6).

[5] = molecular target: T3, Drosophila HSF 1-163 (Drosophila melanogaster, UniProt P22813 SEQ:1-163); assay: footprint; estimated from protein concentration for about 50% binding; settings: tags: E. coli BL21(DE3) extract; label: 32P 5' end
T3 chain: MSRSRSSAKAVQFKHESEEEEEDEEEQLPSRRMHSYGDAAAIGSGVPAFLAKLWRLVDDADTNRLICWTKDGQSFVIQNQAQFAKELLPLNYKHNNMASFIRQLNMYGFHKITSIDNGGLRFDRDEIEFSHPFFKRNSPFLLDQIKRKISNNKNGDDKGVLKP
Procedure: (§1) All numbers refer to amino acid positions. The open bars represent HSF coding sequences; the shaded regions A–D represent sequences conserved between Drosophila and yeast HSF. The solid boxes indicate the φ10 promoter (T_7), the Shine-Delgarno (SD) sequence, and the transcription terminator (T) of the expression vector. (B) SDS polyacrylamide gel analysis of wild-type and mutant HSF polypeptides. Mutants were expressed in BL21 (DE3) in the presence of ^35S-methionine (20 µCi/ml). 0.1 ml of culture was precipitated and the pellet was denatured at 100° C. in 10 µl of Laemmli sample buffer. Samples were electrophoresed on a 15% polyacrylamide gel and visualized by fluorography. The arrows pointing left indicate HSF polypeptides. A 26 kD protein (arrowhead) was also labeled in all samples, including *E. coli* transformed with the expression vector alone. (C) DNase I protection analysis of HSF mutants. A labeled fragment from the hsp70 promoter was incubated with the indicated amounts of wild-type or mutant HSF proteins. Footprinting reactions were performed essentially as described in FIG. 3C. Figure 7B: Figure 7C: […]

[6] = molecular target: T4, Drosophila HSF 1-367 (Drosophila melanogaster, UniProt P22813 SEQ:1-367); assay: footprint; settings: tags: E. coli BL21(DE3) extract; label: 32P 5' end
T4 chain: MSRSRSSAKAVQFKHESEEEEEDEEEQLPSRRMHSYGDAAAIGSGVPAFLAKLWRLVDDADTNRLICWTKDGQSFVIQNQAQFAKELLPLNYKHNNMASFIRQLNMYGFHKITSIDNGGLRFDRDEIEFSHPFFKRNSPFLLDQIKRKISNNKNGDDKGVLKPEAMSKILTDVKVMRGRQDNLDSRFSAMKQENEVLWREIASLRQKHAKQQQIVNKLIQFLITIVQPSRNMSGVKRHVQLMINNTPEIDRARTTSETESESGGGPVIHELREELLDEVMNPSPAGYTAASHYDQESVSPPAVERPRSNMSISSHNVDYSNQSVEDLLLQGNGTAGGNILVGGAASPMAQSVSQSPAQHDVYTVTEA
Text: as §1, with “Figure 7A: FIGS. 7A, 7B, and 7C represent the deletion analysis of HSF. (A) Schematic drawing of full-length HSF open reading frame (pHSF WT) and three deletion mutants PHSF 1-367, 1-241, and 1-163. All” for “All”

[7] = molecular target: T5, Drosophila HSF 1-241 (Drosophila melanogaster, UniProt P22813 SEQ:1-241); assay: footprint; settings: tags: E. coli BL21(DE3) extract; label: 32P 5' end
T5 chain: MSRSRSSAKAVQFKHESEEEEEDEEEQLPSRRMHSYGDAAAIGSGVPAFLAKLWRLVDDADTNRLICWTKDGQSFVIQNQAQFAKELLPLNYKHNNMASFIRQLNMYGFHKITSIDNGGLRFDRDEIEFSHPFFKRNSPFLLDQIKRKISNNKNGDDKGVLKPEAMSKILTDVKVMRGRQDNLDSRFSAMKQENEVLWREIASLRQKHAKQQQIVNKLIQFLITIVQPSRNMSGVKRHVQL
Text: as §1, with “Figure 7A: FIGS. 7A, 7B, and 7C represent the deletion analysis of HSF. (A) Schematic drawing of full-length HSF open reading frame (pHSF WT) and three deletion mutants PHSF 1-367, 1-241, and 1-163. All” for “All”

human HSF (HuHSF) (Homo sapiens), sequence (Q00613 whole entry): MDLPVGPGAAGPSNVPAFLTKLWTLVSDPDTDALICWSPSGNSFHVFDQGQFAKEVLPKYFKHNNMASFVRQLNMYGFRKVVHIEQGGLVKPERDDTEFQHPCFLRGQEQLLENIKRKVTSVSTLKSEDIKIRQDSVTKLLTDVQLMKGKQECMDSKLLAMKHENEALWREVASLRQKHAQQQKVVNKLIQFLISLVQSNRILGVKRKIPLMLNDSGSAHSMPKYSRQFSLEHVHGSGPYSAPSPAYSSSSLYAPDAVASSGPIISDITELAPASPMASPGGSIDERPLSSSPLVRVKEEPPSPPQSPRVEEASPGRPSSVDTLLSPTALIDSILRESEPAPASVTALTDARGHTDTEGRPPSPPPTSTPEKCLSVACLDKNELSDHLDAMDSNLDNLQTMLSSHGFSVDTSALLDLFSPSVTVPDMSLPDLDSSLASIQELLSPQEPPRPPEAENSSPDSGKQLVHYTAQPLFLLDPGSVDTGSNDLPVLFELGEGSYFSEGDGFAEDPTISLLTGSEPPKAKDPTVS

## synthetic HSE with three -GAA- repeats in alternating orientation
[1]
  binding signal (fold increase on heat shock): 5

## phsp70(-50)HSE2 template
[2]
  activity (fold transcription stimulation): 6
[3]
  activity: 7

B1: recombinant Drosophila heat shock factor (HSF), full-length, expressed in E. coli (pHSFWT) or translated in vitro in rabbit reticulocyte lysate (other)
chain: T1 sequence
[4]
  binding result: binds

B2: hsp70 promoter (-100 to +10 printed) (dsDNA)
DNA 1: AAACGGCACACTGTTCTCGTTGCTTCGAGAGAGCGCGCCTCGAATGTTCGCGAAAAGAGCGCCGGAGTATAAATAGAGGCGCTTCGTCGACGGAGCGTCAATTCAATTCA
DNA 2: TGAATTGAATTGACGCTCCGTCGACGAAGCGCCTCTATTTATACTCCGGCGCTCTTTTCGCGAACATTCGAGGCGCGCTCTCTCGAAGCAACGAGAACAGTGTGCCGTTT
[5]
  binding signal: 50 fold lower affinity vs full length
[6]
  binding signal: ≤ 2 fold difference vs full length
[7]
  binding signal: ≤ 2 fold difference vs full length
